The values that follow come from patent US20220213209A1 (JOINT STOCK COMPANY BIOCAD, published 2022).

One assay has as its target T1, human FcgRIIa131R (human, UniProt P12318 36-218, biotinylated (site not stated)).
T1 construct: Biotinylated receptor on streptavidin sensors
T1 sequence (looked up): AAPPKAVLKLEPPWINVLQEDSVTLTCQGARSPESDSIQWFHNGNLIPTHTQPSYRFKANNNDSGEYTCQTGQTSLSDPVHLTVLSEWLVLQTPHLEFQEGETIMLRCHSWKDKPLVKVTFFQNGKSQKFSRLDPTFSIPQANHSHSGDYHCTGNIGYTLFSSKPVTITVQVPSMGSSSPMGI
As to the kind of experiment: bio-layer interferometry (OctetRed 96), biotinylated receptor on streptavidin sensors, antibody in solution, pH 7.4 buffer, 30 °C. The method, then: (§1) The binding affinity constants for antibody BCD166-02-01-human FcRn, FcgRIIIa158V, FcgRIIIa158F, FcgRIIa131H, FcgRIIa131R, FcgRIIb and FcgRIa interactions were determined using OctetRed 96 (ForteBio). Biotinylated receptors were immobilized on the surface of streptavidin sensors (SA). We conducted and analyzed the association and dissociation between receptors and antibody in a working buffer (PBS containing 0.1% Tween-20 and 0.1% BSA: for FcRn receptor we used pH6 buffer, for the other receptors we used pH 7.4 buffer) at 30° C. The resulting sensograms were analyzed in accordance with 1:1 or 2:1 models, the affinity constants were calculated using Octet Data Analysis Software 8.0 User Guide Copyright 2011©.

A further assay addresses T2, human FcgRIa (human, UniProt P12314 16-288, limits assumed, biotinylated (site not stated)).
T2 construct: Biotinylated receptor on streptavidin sensors
The assay is described as above. The method, then:
as §1

For a further assay, the target named is T3, human FcgRIIb (human, UniProt P31994 43-217, biotinylated (site not stated)).
T3 construct: Biotinylated receptor on streptavidin sensors
T3 sequence (looked up): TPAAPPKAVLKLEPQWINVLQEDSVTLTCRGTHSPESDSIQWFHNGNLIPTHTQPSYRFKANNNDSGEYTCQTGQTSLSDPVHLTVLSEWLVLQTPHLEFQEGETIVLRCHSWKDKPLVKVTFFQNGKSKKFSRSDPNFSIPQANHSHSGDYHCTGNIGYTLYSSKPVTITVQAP
The assay is described as above. As to the method: as §1

For a further assay, the target named is T4, human FcgRIIIa158F (human, UniProt P08637 17-208, biotinylated (site not stated)).
T4 construct: Biotinylated receptor on streptavidin sensors
T4 sequence (P08637 17-208 limits assumed): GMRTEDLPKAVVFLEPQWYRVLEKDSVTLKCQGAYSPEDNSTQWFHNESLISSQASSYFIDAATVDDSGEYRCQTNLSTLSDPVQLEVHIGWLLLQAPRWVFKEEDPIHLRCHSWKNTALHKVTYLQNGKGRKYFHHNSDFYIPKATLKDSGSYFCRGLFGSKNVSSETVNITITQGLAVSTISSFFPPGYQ
The assay is described as above. As to the method:
as §1

A further assay deals with T5, human FcgRIIIa158V (human, UniProt P08637 17-208, biotinylated (site not stated)).
T5 construct: Biotinylated receptor on streptavidin sensors
T5 sequence (P08637 17-208 F176V limits assumed): as the sequence (P08637 17-208 limits assumed) above, with F160V counted along it
Described as above. The method, then:
as §1

Another assay concerns the target T6, human FcgRIIa131H (human, UniProt P12318 36-218, biotinylated (site not stated)).
T6 construct: Biotinylated receptor on streptavidin sensors
T6 sequence (looked up): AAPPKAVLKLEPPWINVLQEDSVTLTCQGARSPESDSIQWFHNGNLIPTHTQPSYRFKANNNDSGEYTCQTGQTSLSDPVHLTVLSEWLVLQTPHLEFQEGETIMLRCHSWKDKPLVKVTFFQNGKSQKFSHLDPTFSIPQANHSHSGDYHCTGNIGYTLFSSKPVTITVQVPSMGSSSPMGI
Described as above. As to the method: as §1

For a further assay, the target named is T7, human FcRn (human, UniProt P55899 24-297; P61769 21-119, biotinylated (site not stated)).
T7 construct: Biotinylated receptor on streptavidin sensors
T7 sequence (P55899 24-297 limits assumed, chain 1 of 2): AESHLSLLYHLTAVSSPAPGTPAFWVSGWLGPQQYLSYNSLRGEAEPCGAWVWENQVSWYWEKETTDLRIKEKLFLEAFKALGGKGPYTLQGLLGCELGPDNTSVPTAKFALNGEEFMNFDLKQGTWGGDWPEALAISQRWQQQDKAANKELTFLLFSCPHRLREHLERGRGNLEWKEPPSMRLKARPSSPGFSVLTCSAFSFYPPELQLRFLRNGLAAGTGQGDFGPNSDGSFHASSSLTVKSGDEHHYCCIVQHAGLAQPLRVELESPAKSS
T7 sequence (P61769 21-119 limits assumed, chain 2 of 2): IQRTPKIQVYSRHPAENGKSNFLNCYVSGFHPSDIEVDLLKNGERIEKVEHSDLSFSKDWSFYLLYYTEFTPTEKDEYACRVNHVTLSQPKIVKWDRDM
As to the kind of experiment: bio-layer interferometry (OctetRed 96), biotinylated receptor on streptavidin sensors, antibody in solution, pH 6 buffer, 30 °C. The method, then: as §1
In general terms: In BLI a coated tip is dipped into the sample, and binding shifts an interference pattern.

Assay [1] has as its target T8, GITR stably expressed on the surface of HEK-293 cells (UniProt Q9Y5U5 26-241).
T8 sequence (looked up): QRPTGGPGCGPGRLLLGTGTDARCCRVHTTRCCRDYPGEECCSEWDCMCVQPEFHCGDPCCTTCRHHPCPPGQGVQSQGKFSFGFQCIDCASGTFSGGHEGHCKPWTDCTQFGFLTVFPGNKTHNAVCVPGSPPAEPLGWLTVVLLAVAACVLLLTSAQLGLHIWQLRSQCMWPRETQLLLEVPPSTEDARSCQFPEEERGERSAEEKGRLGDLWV
As to the kind of experiment: cell-based or functional assay.

The target in assay [2] is T9, recombinant human GITR antigen (extracellular domain) (human, UniProt Q9Y5U5 26-162).
T9 construct: extracellular domain
T9 sequence (looked up): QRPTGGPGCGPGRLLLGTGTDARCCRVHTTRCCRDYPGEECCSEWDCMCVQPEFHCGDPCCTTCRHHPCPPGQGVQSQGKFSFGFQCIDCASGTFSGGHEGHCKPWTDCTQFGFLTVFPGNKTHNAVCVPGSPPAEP
As to the kind of experiment: BLI OctetRed 96, antigen on AR2G sensors, antibody in solution, 1:1 model. As to the method:
Binding affinity constants for anti-GITR antibody-human/rhesus macaque/cynomolgus monkey GITR interactions were determined using OctetRed 96 according to manufacturer (ForteBio) protocol. Antigen 25 μg/ml was non-specifically immobilized onto the surface of amine-reactive sensors of the second generation (AR2G) (ForteBio, using standard protocol according to manufacturer's instructions for preparation and immobilization of AR2G sensors). […] The assay was conducted at 30° C. using PBS comprising 0.1% Tween-20 and 0.1% BSA as a working buffer.
The resulting sensograms, after subtracting a reference signal, were analyzed using Octet Data Analysis software (Version 8.0) in accordance with the standard procedure and using 1:1 interaction model. All tested antibodies show high affinity and specificity for human GITR.

For a further assay, the target named is T10, macaca Cynomolgus GITR (Macaca cynomolgus).
T10 construct: also called cynomolgus monkey GITR; monkey GITR
Described as above. The method, then: (§2) Binding affinity constants for anti-GITR antibodies and rhesus macaque/cynomolgus monkey GITR were obtained using OctetRed 96 according to manufacturer's (ForteBio) protocol. Antigen 25 μg/ml was non-specifically immobilized onto the surface of amine-reactive sensors of the second generation (AR2G) (ForteBio, using standard protocol according to manufacturer's instructions for preparation and immobilization of AR2G sensors). […] The assay was conducted at 30° C. using PBS comprising 0.1% Tween-20 and 0.1% BSA as a working buffer.
(§3) The resulting sensograms, after subtracting a reference signal, were analyzed using Octet Data Analysis software (Version 8.0) in accordance with the standard procedure and using 1:1 interaction model.

In a further assay the target is T11, macaca mulatta GITR (Macaca mulatta, UniProt F7DDV8 20-156).
T11 construct: also called rhesus macaque GITR; mcyGITR Macaca mulatta
T11 sequence: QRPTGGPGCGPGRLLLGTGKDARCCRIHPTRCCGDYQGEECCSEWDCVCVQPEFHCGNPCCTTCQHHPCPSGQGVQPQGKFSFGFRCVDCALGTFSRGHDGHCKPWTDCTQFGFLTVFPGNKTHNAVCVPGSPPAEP
The description is as above. As to the method: as §2, §3

The target in another assay is T12, murine GITR-Fc (Mus musculus, UniProt O35714 20-153).
T12 construct: extracellular domain; also called mouse GITR; musGITR
T12 sequence (looked up): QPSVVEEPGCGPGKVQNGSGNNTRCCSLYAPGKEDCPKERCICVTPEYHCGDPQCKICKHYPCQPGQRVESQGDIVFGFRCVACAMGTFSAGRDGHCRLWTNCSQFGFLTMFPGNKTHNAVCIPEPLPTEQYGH
Put plainly: ELISA, plate coated with mouse GITR-Fc 0.5 µg/ml, antibody titrated 10 to 0.02 µg/ml. As to the method: ELISA was used to measure relative affinity of antibodies against GITR-Fc from different organisms. For binding assay, ELISA plate wells (medium binding from Greiner bio one) were coated with 50 μl of human/cynomolgus/murine GITR-Fc (0.5 μg/ml in 1× carbonate buffer), sealed and incubated overnight at 4° C. All further steps were performed in accordance with the standard ELISA protocol described in Example 6. […] Therefore, candidate BCD166-01-011 was excluded from further study due to the lack of apparent specificity for the monkey GITR. Candidates BCD166-01-01 and BCD166-01-014 were finalized for further development.
A general note: ELISA stands for enzyme-linked immunosorbent assay.

T2 sequence (P12314 16-288 limits assumed): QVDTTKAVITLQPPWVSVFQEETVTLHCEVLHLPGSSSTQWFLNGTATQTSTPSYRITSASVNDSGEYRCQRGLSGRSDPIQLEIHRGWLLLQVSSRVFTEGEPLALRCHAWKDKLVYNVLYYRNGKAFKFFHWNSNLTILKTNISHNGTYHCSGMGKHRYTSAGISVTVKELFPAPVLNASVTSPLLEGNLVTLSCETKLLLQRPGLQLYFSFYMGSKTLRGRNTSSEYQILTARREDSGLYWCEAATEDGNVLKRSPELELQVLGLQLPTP

B1: BCD166-02-01 (antibody, human IgG1, kappa)
heavy: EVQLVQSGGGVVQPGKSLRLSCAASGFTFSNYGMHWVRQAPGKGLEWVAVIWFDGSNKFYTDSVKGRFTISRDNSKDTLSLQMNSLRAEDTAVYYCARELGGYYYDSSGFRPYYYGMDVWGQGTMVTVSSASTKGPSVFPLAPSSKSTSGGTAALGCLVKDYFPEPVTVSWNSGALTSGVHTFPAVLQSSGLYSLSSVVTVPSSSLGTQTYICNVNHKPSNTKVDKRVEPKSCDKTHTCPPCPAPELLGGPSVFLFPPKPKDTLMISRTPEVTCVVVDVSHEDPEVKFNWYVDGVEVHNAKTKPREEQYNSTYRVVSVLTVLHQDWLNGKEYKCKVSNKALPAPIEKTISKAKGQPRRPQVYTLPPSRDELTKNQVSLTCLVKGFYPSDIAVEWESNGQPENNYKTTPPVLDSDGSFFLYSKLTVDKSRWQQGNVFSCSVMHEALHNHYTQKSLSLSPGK
light: DVVMTQSPSSVSASVGDRVTITCRASQSIGSWLAWYQQKPGEAPKLLIYAASTLQRGVPSRFSGGGYGTEFTLTISSLQPEDFATYFCQQSHSHPLTFGGGTKVEIKRTVAAPSVFIFPPSDEQLKSGTASVVCLLNNFYPREAKVQWKVDNALQSGNSQESVTEQDSKDSTYSLSSTLTLSKADYEKHKVYACEVTHQGLSSPVTKSFNRGEC
notes: BCD166-01-01 with the E345R mutation (EU numbering) in the IgG1 Fc; also called BCD166-02-001
One may read the Kd as the free concentration of one partner at which half of the binding sites on the other are occupied at equilibrium, for simple one-to-one binding. As for B1, the Kd with human FcgRIIa131R came out at 40.2 nM; with human FcgRIa, 0.723 nM; with human FcgRIIb it was 557 nM; in the assay with human FcgRIIIa158F, 1420 nM; with human FcgRIIIa158V it was 118 nM; with human FcgRIIa131H, 72.2 nM. This molecule yielded a Kd in the assay with human FcRn of 27 nM. Besides, the “EC50 in ADCC reporter assay (Jurkat-NFAT-Luc-CD16 effector cells, Hek-293-GITR target cells)” value in assay [1] was 40 fold, against BCD166-01-01. Besides, the “EC50 in cell agonist assay (HEK293-GITR-NFkB-Luc)” value in assay [1] was 20 fold, against BCD166-01-01. Moreover, the “level of activation in cell agonist assay (HEK293-GITR-NFkB-Luc)” value in assay [1] was 5 fold, against BCD166-01-01.

B2: BCD166-01-01 (antibody, human IgG1, kappa)
heavy: not shown
light: DVVMTQSPSSVSASVGDRVTITCRASQSIGSWLAWYQQKPGEAPKLLIYAASTLQRGVPSRFSGGGYGTEFTLTISSLQPEDFATYFCQQSHSHPLTFGGGTKVEIKRTVAAPSVFIFPPSDEQLKSGTASVVCLLNNFYPREAKVQWKVDNALQSGNSQESVTEQDSKDSTYSLSSTLTLSKADYEKHKVYACEVTHQGLSSPVTKSFNRGEC
notes: Full-length human IgG1, kappa; also called BCD166-01-001; BCD166-NHVKITSe13-5-H3-25
With B2, the figures for the Kd (in assay [2]; in the assay with macaca Cynomolgus GITR; in the assay with macaca mulatta GITR) were 0.0638 nM, 0.542 nM and 0.0924 nM, respectively. Moreover, the binding result with murine GITR-Fc is “no binding (tested: 10 µg/ml)”.

B3: BCD166-01-014 (antibody, human IgG1, lambda, V domains shown)
VH: QVQLVQSGGGLVQPGGSLRLSCAASGFTFSYYWMYWVRQAPGKGLEWVSAISWNGGRTYYAESMKGRFTISRDNAQNTLYLQMNSLKSEDTAVYYCAKNRYYSDPNYGMNLWGKGTTVTVSS
VL: QSALTQPASVSGSPGQSITISCTGTSTDIGTYKYISWYQQHPGKAPKLIIYGVSHRPSGVSDRFSGSKSDNTASLTISGLQAEDEADYYCSSYTSSGTVVFGGGTKVTVLG
notes: Full-length IgG1, lambda light chain; from an immune llama-human CHARM Fab library; also called BCD166-01-14
As to B3, the Kd in assay [2] stood at 8.5 nM; in the assay with macaca Cynomolgus GITR it was 55.3 nM; with macaca mulatta GITR, 0.192 nM. The binding result with murine GITR-Fc is “no binding (tested: 10 µg/ml)”.
